T1: LANA DBD wild-type (KSHV (HHV-8), UniProt Q9DUN0 825-967)
T1 sequence: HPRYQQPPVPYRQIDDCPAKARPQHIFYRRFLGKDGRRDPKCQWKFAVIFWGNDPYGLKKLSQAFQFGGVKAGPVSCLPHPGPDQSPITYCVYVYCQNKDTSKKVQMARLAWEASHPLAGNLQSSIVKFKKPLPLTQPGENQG

B1: His-SMT3-BRD2 ET domain, short form (BRD2 633-714) (domain or fragment, UniProt P25440 633-714, looked up)
chain: SEEEEESRPMSYDEKRQLSLDINKLPGEKLGRVVHIIQAREPSLRDSNPEEIEIDFETLKPSTLRELERYVLSCLRKKPRKP
notes: also called BRD2S
B2: LANA C-terminal DNA binding domain (residues 1011-1153), wild type (domain or fragment)
chain: T1 sequence
notes: source: E. coli, purified (Ni-NTA, tag cleaved with ULP1, second Ni-NTA, Superdex 75)
B3: LBS1 21-mer FP probe (dsDNA)
DNA 1: AGCGGCCCCATGCCCGGGCGG
DNA 2: CCGCCCGGGCATGGGGCCGCT

What was measured:
[1] = molecular target: B2; assay: pull-down; His-SMT3-BRD ET domain held on Ni-NTA resin; untagged LANADBD or EBNA1DBD added; 200 mM NaCl, 20 mM HEPES, 5 mM BME, pH 8.0; washed with 10 CV; eluted with 300 mM imidazole; details: both partners purified
[2] = molecular target: the molecule itself; assay: cross-linking; EGS, without DNA; 200 mM NaCl, 20 mM HEPES pH 7.4, 1 mM DTT, room temperature; samples boiled and run on gels
[3] = molecular target: the molecule itself; assay: cross-linking; EGS, with a 1.2 molar excess of LBS1 DNA (unlabeled 21-mer); 200 mM NaCl, 20 mM HEPES pH 7.4, 1 mM DTT, room temperature; step: dimers and tetramers to higher oligomers
[4] = molecular target: T2, His-SMT3-BRD2 ET domain, long form (BRD2 633-801) (UniProt P25440 633-801); assay: pull-down; His-SMT3-BRD ET domain held on Ni-NTA resin; untagged LANADBD or EBNA1DBD added; 200 mM NaCl, 20 mM HEPES, 5 mM BME, pH 8.0; washed with 10 CV; eluted with 300 mM imidazole; details: both partners purified
T2 construct: also called BRD2L

LANA DBD wild-type = molecular target: T1, LANA DBD wild-type; assay: fluorescence polarization; cooperative, Hill h > 1; Kd only in figure; FP: 200 mM NaCl, 20 mM HEPES, 1 mM DTT, (protein stock pH 7.4), 1 ug/mL BSA, 0.1 ug/mL poly(dA:dT), 0.001% Tween 20, 1 nM probe, room temperature 30 min; EMSA:; details: protein: recombinant; tags: His-SMT3 removed by ULP1; chain copies: 2; label: 5' 6-carboxyfluorescein; blunt

Binder: B1
- binding result [1]: binds

Binder: B2
- stoichiometry N [2]: 4
- stoichiometry N [3]: ~10
- binding result [4]: binds

Binder: B3
- binding result (LANA DBD wild-type): binds
